Drawing on article PMC7274780, this text covers stoichiometry N for one substance.

For this assay, the target named is Salmonella typhimurium oxaloacetate decarboxylase sodium pump (StOAD) β subunit (Salmonella typhimurium) (UniProt Q03031). The experiment in a line: cryo-EM structure; purified StOAD βγ sub-complex in 20 mM Tris pH 7.5, 100 mM sodium chloride, 2 mM DTT, 0.02% DDM; C3 symmetry imposed; 3.88 Å.

Substance “Salmonella typhimurium oxaloacetate decarboxylase sodium pump (StOAD) β subunit (from UniProt Q03031 1-433) (natural protein)” registered a stoichiometry N of 3.
